Consider two molecules from patent US20240352438A1, “MEANS AND METHODS FOR DETOXIFYING OCHRATOXIN A” (DSM Austria GmbH, priority 2021, published 2024).

Assay [1] in a line: Pelleting trial: degradation of spiked OTA to OTalpha in mash feed and resuspended pellets. As to conditions: for OTalpha %: formed OTalpha; for OTA %: remaining OTA. Here is the method:
To verify the suitability of the enzymes referred to herein as additives e.g. for feed or food, pelleting trials were conducted. As an example, 1.15 U or 0.06 U of either of the enzymes having either the amino acid sequence of SEQ ID NO: 1 or 2 was homogeneously mixed with one kg of mash feed and subjected to standard feed pelleting process where the temperature of the conditioner was set to either 75, 80, 85, 90 or 95° C. in five separate batches of feed pelleting. The effect of pelleting process on the stability of enzyme was estimated by calculation of percentage degradation of spiked OTA to OTalpha in resuspended pellets. Untreated mash was analyzed applying the following protocol: 50 μL of 10 ppm OTA were spiked to g of dry sample, directly before starting the assay by adding 4.95 mL RO-water (37° C.). The suspension was incubated in 50 mL tubes in an overhead shaker at 37° C. for 60 min. The reaction was stopped by adding 1 mL 6 M phosphoric acid followed by another incubation in a rotary shaker at room temperature for 10 min. Subsequently 30 μL of ^13C-labeled OTA/^13C-labeled OTalpha (each 1 ppm) internal standard were added to each sample and mixed. 30 mL ethyl acetate were added followed by shaking for 60 min at 80 rpm on an overhead shaker. After centrifugation (10 min, 3214 rcf), 8 mL of the organic upper phase were transferred to a new 50 mL tube. 4 mL of 0.1 M NaHCO3 (pH 8.2) were added. After shaking for 1 min at 80 rpm on an overhead shaker, sample was centrifuged again (10 min, 3214 rcf) and 3 mL of the aqueous lower phase transferred to a new 15 mL tube. 70 μL 85% phosphoric acid and 1.5 mL ethyl acetate were added and shaken for 1 min at 80 rpm at an overhead shaker. After centrifugation (10 min, 3214 rcf) 50 μL organic upper phase were added to 50 μL acetonitrile in a silanized HPLC vial and thoroughly mixed. OTA and OTalpha content was determined by HPLC MS/MS method as described by Dellafiora et al. (2020, Toxins 12, 258) to determine the percentage of OTA degradation to form OTalpha.

Assay [2] can be described thus: Feeding trial in pigs: OTA concentration in plasma and urine. The format is in vivo. The following applies: for % OTA reduction, plasma samples / % OTA reduction, urine samples: day 14. The procedure: To further study an application of the enzymes referred to herein as additives e.g. for feed or food, feeding trials were conducted in pigs. Exemplarily, either of the enzymes having either the amino acid sequence of SEQ ID NO: 1 or 2 were produced by cultivation of E. coli transformants in bioreactors by applying methods known to a person having skill in the art. The cell broth was homogenized and centrifuged. The supernatant was concentrated, dried by lyophilization and formulated as a powder by grinding. The enzymatic activity of the thus obtained lyophilized powder was determined, and the powder was mixed with feed for the feeding trial as described in the following.
Thirteen piglet groups were studied based on the following experimental diet setups: 1) Base feed; 2) base feed+50 ppb OTA; 3) base feed+50 ppb OTA+2.62 U of the enzyme of SEQ ID NO: 1 per kg of feed; 4) base feed+50 ppb OTA+0.29 U of the enzyme of SEQ ID NO: 2 per kg of feed; 5) base feed+500 ppb OTA; 6) base feed+500 ppb OTA+2.62 U of the enzyme of SEQ ID NO: 1 per kg of feed; 7) 500 ppb OTA+0.29 U of the enzyme of SEQ ID NO: 2 per kg of feed.
Each trial group consisted of four piglets weighing approximately 7-8 kg, who were coming out from weaning and adapted to solid diet before being fed the experimental diet as described above. The duration of the feeding trial (i.e. actual days of feeding the experimental diet) was fourteen days. Collectively each trial group consumed around 15 kg of feed. No piglets fell sick to any unexpected disease throughout the feeding trial. Urine and blood samples were collected on day 0, just before starting the experimental diet, and on day 14.
Extraction of OTA was performed from plasma and urine samples for subsequent analysis by HPLC-MS. 200 μL of sample was thoroughly mixed with 800 μL of extraction solution (containing 99% of ethyl acetate and 1% of phosphoric acid, 85%) followed by centrifugation at 19000×g for 5 min for phase separation. 50 μL of upper phase was diluted with 50 μL of acetonitrile, followed by HPLC-MS analysis. The HPLC-MS method as described by Dellafiora et al. (2020, Toxins 12, 258) was used to determine the changes in OTA concentration in the samples taken during the trial upon consumption of the experimental diets. The results are shown in Table 18 using the diet setup numbering as indicated above.

The mark [3] stands for this setting: mash before pelleting, 1.15 U or 0.06 U enzyme per kg mash feed, 37° C., 60 min.
The mark [4] stands for this setting: 500 ppb OTA+enzyme (2.62 U SEQ ID NO: 1 or 0.29 U SEQ ID NO: 2 per kg of feed).
The mark [5] stands for this setting: base feed+50 ppb OTA+enzyme (2.62 U SEQ ID NO: 1 or 0.29 U SEQ ID NO: 2 per kg of feed).

B1: SEQ ID NO: 2: exemplary OTA-hydrolyzing polypeptide 2 belonging to the amidohydrolase protein family (protein)
chain: MYSLAIRNGIVFDGEKFIGKTNIYVDGDKIVKITNERLDAKEEVNAEGYFVMPGLIDAHLHLTGIRGGSLLMGYLLDDPRTRLLRAANWARELLMAGFTTVRDCGEPNSIILRNAINEGIIPGPRIIAAGSPITQTFGHAELSHSLPLEWSIQLGFGEICDGVDECIKAARKVLRSGADFIKIMATGGVLSERDRPEWPQLTPEEMSAIVREAEKVGTYVAAHAHGDKGARIAVEAGVRTIEHGSLITEETVKLMAEKGVSLTPTLSIQELIYKYGKQMGIDPWGLEKIGQVREGVINSIKLARKYGVMILAGTDLGFKTGLDIDMGKNWVEVKLLVELGGLSSEEALRAATGNASKMLRLNTGIIREGYLADIVLINGNPLENINDIARVSTVIKGGKVTVENGKLI
modifications: polypeptide 2
notes: exemplary OTA-hydrolyzing polypeptide 2 belonging to the amidohydrolase protein family
As for B1, the OTalpha % is given as 84% in assay [1] (after pelleting at 75° C.); 88% in assay [1] (after pelleting at 80° C.); 84% in assay [1] (after pelleting at 85° C.); 88% in assay [1] (after pelleting at 90° C.); 87% in assay [1] (after pelleting at 95° C.); 80% in assay [1] (setting [3]). Moreover, the OTA % amounted to 16% in assay [1] (after pelleting at 75° C.); 12% in assay [1] (after pelleting at 80° C.); 16% in assay [1] (after pelleting at 85° C.); 12% in assay [1] (after pelleting at 90° C.); 13% in assay [1] (after pelleting at 95° C.); 20% in assay [1] (setting [3]). The “OTA concentration in plasma samples, Day 14” value came to 107 ± 31 ppb in assay [2] (setting [4]) and 11 ± 3 ppb in assay [2] (setting [5]). Further, the “OTA concentration in urine samples, Day 14” value in assay [2] (setting [4]) was determined as 4 ppb; in assay [2] (setting [5]), 0 ppb. Besides, the “% OTA reduction, plasma samples” value is reported as 74% in assay [2] (setting [4]) and 73% in assay [2] (setting [5]). Further, the “% OTA reduction, urine samples” value is 80% in assay [2] (setting [4]) and 100% in assay [2] (setting [5]).

B2: SEQ ID NO: 1: mature species of exemplary OTA-hydrolyzing polypeptide 1, amidohydrolase family; lacks N-terminal amino acids 1-24 of SEQ ID NO: 318 (protein)
chain: APAAPHTVVLRAARMFDGASGKLVDHPQLTIVGNKIVRIAQGDKAEVPAGAEVVDLGDATLLPGFIDAHVHLSGQSSDNWYGDFFDNMMRFPAEQALYGAYYARITLEAGFTSVRDVGSTDWVALGLRNAIDAGKVPGPRMLVSNYAVGSTGGHADQDPIPPHKLPLAGPLQGVCNGPEECRAAVRYQIKYGANVIKFMPSGGVLSLSDPVDAPELSQDEMNAVIGESHAWGRKVAAHAHGDKAAKMAVAAGVDSIEHGSFIEDDTLRAMKAKNVYLVPTISAIAHVEEKIGTFPPVIAEKGRAAAAHLRQTFRHAVQIGVPIALGTDAGVGAHGSNAREFRYMVENGLTPAQALLAGTANAARLLGTFDRVGTLEAGKLADVVAVPGNPIADITVTERPLFVMKDGVVVRRDAVR
modifications: polypeptide 1
Regarding B2, the OTalpha % in assay [1] (after pelleting at 75° C.), in assay [1] (after pelleting at 80° C.), in assay [1] (after pelleting at 85° C.), in assay [1] (after pelleting at 90° C.), in assay [1] (after pelleting at 95° C.) and in assay [1] (setting [3]) was 99% throughout. The OTA % in assay [1] (after pelleting at 75° C.), in assay [1] (after pelleting at 80° C.), in assay [1] (after pelleting at 85° C.), in assay [1] (after pelleting at 90° C.), in assay [1] (after pelleting at 95° C.) and in assay [1] (setting [3]) was 1% each time. For the same molecule, the “OTA concentration in plasma samples, Day 14” value in assay [2] (setting [4]) was found to be 168 ± 41 ppb; in assay [2] (setting [5]), 19 ± 2 ppb. Moreover, the “OTA concentration in urine samples, Day 14” value in assay [2] (setting [4]) turned out to be 7 ± 1 ppb; in assay [2] (setting [5]), 0 ppb. Further, the “% OTA reduction, plasma samples” value in assay [2] (setting [4]) was 59%; in assay [2] (setting [5]), 54%. Also, the “% OTA reduction, urine samples” value was found to be 65% in assay [2] (setting [4]) and 100% in assay [2] (setting [5]).
